From patent CN116143922A (BEIJING DONGFANG BIOTECH CO LTD, dated 2023)

Assays:
[1] = biological target: T1, LILRB4抗原 (人LILRB4蛋白胞外段) (human, UniProt Q8NHJ6 22-259); test: ELISA, coated LILR family protein, antibody at 50 μg/mL
T1 construct: extracellular domain

[2] = biological target: T2, LILRB3 (UniProt O75022 24-443, limits assumed); test: as above
[3] = biological target: T3, LILRB5 (UniProt O75023 24-458, limits assumed); test: as above
[4] = biological target: T4, LILRA3 (UniProt Q8N6C8 24-439); test: as above
T4 sequence (Q8N6C8 24-439 limits assumed): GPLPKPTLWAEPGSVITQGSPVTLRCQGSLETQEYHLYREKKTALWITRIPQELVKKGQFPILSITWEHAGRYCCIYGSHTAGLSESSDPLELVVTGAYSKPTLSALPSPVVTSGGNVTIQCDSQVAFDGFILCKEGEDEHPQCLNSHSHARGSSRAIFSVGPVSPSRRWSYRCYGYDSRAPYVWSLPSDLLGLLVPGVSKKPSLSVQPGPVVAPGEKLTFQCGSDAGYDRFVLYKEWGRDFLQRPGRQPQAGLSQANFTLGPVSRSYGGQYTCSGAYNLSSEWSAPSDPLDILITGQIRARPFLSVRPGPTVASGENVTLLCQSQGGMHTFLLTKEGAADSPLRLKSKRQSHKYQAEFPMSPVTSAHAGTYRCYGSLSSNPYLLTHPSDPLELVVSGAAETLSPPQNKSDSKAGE

[5] = biological target: T5, LILRA5 (UniProt A6NI73 42-268, limits assumed); test: as above
T5 sequence (A6NI73 42-268 limits assumed): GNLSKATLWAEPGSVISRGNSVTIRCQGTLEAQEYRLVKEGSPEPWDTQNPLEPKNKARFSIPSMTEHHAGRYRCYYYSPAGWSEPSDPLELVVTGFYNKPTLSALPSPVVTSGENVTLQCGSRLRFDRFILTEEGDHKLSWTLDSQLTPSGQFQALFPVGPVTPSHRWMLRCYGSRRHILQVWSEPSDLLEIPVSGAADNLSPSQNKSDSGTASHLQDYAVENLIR

[6] = biological target: T6, LILRB2 (UniProt Q8N423 22-460, limits assumed); test: as above
T6 sequence (Q8N423 22-460 limits assumed): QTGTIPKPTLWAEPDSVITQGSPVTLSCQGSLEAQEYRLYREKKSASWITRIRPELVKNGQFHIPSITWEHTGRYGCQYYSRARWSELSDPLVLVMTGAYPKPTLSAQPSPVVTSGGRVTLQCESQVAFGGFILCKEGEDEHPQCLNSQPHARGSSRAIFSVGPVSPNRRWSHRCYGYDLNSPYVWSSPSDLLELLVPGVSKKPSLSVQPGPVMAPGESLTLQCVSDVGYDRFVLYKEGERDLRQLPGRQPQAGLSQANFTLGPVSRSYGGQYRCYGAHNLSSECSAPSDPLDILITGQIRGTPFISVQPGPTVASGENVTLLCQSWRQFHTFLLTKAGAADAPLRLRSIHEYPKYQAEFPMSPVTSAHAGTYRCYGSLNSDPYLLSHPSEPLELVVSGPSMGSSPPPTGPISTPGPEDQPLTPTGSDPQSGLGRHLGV

[7] = biological target: T7, LILRB1 (UniProt Q8NHL6 24-461, limits assumed); test: as above
T7 sequence (Q8NHL6 24-461 limits assumed): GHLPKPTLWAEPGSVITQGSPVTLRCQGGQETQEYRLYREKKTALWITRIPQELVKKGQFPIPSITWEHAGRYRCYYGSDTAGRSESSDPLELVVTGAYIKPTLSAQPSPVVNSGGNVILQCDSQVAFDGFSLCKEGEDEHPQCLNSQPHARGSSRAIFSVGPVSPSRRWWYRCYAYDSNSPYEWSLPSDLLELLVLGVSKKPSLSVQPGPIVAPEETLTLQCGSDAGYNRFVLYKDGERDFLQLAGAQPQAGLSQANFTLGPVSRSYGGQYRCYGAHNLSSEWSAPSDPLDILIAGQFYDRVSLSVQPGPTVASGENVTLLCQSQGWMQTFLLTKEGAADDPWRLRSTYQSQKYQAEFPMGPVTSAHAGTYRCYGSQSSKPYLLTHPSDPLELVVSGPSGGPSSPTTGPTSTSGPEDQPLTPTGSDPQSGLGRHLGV

[8] = biological target: T8, LILRA1 (UniProt O75019 17-461, limits assumed); test: as above
T8 sequence (O75019 17-461 limits assumed): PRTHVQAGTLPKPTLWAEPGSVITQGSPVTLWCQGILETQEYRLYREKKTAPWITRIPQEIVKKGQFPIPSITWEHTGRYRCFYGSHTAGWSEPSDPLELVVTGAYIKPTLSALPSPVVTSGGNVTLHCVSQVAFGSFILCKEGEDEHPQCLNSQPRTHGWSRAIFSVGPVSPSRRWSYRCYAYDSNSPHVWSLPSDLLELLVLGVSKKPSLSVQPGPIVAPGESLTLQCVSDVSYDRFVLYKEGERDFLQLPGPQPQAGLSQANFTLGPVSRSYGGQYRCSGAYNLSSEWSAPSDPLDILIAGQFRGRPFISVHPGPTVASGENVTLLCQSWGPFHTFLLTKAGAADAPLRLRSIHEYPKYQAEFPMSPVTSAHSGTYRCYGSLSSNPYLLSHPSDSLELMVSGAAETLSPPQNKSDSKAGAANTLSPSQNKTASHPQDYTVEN

[9] = biological target: T9, LILRA2 (UniProt Q8N149 24-449, limits assumed); test: as above
T9 sequence (Q8N149 24-449 limits assumed): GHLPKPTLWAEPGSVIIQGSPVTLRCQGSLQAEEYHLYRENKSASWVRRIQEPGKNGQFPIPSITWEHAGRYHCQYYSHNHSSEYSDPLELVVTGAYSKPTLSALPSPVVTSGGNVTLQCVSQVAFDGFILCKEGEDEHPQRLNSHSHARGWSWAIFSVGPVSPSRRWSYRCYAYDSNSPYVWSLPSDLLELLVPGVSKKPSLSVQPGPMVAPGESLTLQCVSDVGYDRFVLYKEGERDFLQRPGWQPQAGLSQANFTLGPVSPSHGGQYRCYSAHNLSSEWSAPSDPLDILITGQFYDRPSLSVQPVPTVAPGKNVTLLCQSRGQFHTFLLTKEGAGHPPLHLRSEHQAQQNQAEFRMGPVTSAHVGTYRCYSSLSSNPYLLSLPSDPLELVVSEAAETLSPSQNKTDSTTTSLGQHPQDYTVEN

[10] = biological target: T10, LILRA6 (UniProt Q6PI73 24-447, limits assumed); test: as above
T10 sequence (Q6PI73 24-447 limits assumed): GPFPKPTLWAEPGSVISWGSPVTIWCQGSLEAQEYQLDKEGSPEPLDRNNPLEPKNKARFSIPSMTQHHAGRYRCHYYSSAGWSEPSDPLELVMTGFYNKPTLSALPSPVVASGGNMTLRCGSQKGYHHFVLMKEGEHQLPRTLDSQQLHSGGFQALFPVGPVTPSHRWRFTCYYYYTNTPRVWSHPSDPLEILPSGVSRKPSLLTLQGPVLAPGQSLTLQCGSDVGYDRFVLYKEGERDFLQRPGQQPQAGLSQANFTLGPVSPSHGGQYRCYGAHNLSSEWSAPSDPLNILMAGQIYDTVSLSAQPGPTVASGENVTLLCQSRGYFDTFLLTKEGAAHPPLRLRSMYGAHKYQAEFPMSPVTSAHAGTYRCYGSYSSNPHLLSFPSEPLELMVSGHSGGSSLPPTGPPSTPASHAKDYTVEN

[11] = biological target: T11, LILRA4 (UniProt P59901 24-446, limits assumed); test: as above
T11 sequence (P59901 24-446 limits assumed): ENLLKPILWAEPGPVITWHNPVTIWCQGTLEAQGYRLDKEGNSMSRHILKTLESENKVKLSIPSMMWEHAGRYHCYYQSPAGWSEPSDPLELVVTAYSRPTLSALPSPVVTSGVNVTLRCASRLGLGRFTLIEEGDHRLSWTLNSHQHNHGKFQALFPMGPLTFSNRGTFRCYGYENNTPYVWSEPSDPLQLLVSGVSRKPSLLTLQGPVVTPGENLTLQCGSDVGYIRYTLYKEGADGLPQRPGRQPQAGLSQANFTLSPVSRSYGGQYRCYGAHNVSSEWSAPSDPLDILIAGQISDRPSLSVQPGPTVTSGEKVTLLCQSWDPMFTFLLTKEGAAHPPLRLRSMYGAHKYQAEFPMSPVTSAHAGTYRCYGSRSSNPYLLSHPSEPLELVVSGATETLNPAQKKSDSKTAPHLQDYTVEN

[12] = biological target: T2, LILRB3; test: ELISA, coated LILR family protein 100 ng/well, single antibody concentration
[13] = biological target: T3, LILRB5; test: as above
[14] = biological target: T4, LILRA3; test: as above
[15] = biological target: T5, LILRA5; test: as above
[16] = biological target: T6, LILRB2; test: as above
[17] = biological target: T7, LILRB1; test: as above
[18] = biological target: T8, LILRA1; test: as above
[19] = biological target: T9, LILRA2; test: as above
[20] = biological target: T10, LILRA6; test: as above
[21] = biological target: T11, LILRA4; test: as above
[22] = biological target: T12, THP-1细胞表面的LILRB4 (human, UniProt Q8NHJ6 22-448); test: cell-based or functional assay
[23] = biological target: T12, THP-1细胞表面的LILRB4; test: flow cytometry on THP-1 cells, FITC goat anti-mouse IgG detection
[24] = biological target: T12, THP-1细胞表面的LILRB4; test: flow cytometry competition on THP-1 cells; MD-Ⅰ titrated, competitor FITC-labelled ApoE at 0.4 μg/mL
[25] = biological target: T1, LILRB4抗原 (人LILRB4蛋白胞外段); test: ELISA, coated LILRB4 100 ng/well, goat anti-mouse IgG-HRP detection

T2 sequence (O75022 24-443 limits assumed): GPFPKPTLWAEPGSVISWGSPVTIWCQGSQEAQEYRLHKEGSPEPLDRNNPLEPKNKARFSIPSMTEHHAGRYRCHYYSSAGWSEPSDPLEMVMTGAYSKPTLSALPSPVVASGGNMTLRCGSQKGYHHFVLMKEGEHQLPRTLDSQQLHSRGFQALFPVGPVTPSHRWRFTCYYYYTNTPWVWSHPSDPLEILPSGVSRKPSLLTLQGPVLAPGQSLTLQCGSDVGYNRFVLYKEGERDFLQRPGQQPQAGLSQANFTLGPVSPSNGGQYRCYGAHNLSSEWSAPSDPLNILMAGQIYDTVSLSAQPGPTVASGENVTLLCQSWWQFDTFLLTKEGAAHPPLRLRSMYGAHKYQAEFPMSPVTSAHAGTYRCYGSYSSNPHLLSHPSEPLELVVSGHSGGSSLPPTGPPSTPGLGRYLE
T3 sequence (O75023 24-458 limits assumed): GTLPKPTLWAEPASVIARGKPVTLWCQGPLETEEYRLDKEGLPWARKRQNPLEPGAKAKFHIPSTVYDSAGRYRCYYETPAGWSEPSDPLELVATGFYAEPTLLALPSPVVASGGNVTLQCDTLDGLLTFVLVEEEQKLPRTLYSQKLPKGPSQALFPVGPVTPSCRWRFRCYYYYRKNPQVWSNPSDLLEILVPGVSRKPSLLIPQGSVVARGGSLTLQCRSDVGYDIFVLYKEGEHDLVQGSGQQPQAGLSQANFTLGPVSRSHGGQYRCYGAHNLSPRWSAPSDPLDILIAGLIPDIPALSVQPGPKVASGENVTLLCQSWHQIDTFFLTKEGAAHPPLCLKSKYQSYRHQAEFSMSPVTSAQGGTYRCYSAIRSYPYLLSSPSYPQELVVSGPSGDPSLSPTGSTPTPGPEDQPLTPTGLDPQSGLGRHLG

OD 450nm/630nm [1]: 2.42 | OD 450nm/630nm [2]: 0.015 | OD 450nm/630nm [3]: 0.056 | OD 450nm/630nm [4]: 0.028 | OD 450nm/630nm [5]: 0.078 | OD 450nm/630nm [6]: 0.014 | OD 450nm/630nm [7]: 0.047 | OD 450nm/630nm [8]: 0.075 | OD 450nm/630nm [9]: 0.054 | OD 450nm/630nm [10]: 0.045 | OD 450nm/630nm [11]: 0.156 | binding result [12]: no binding (tested: 50μg/mL) | binding result [13]: no binding (tested: 50μg/mL) | binding result [14]: no binding (tested: 50μg/mL) | binding result [15]: no binding (tested: 50μg/mL) | binding result [16]: no binding (tested: 50μg/mL) | binding result [17]: no binding (tested: 50μg/mL) | binding result [18]: no binding (tested: 50μg/mL) | binding result [19]: no binding (tested: 50μg/mL) | binding result [20]: no binding (tested: 50μg/mL) | binding result [21]: no binding (tested: 50μg/mL) | IC50 of inhibition of ARG1 secretion by THP-1 cells in the presence of ApoE (精氨酸酶活性检测) [22]: 310 µg/mL | EC50 [23]: 5.09 µg/mL | IC50 [24]: 8.62 µg/mL | EC50 [25]: 0.221 µg/mL
B1: 抗LILRB4单克隆抗体MD-Ⅰ (mouse IgG1 heavy chain constant region, mouse Ck light chain constant region) (antibody, V domains shown)
VH: EVQLQESGPQLVRPGTSVKLSCKASGYTFTNYWIHWVKQRPGQGLEWIGEINPTNGHTNYNEKFKSKATLTVDKSSSTAYMQLSSLTSEDSAVYYCARYTYDQDAMDYWGQGTSVTVSS
VL: DIVITQSTSSLSASLGDRVTISCRASQDISNYLNWYQQKPDGTVKLLIYYTSRLHSGVPSRFSGSGSGTDYSLTISNLEQEDIATYFCQQGNTLPPTFGGGTKLEIKA
notes: also called MD-I
